In one data set the target is PriA;PriB (Escherichia coli;Escherichia coli, UniProt P17888;P07013 1-732;1-104, |). The settings on record: protein: recombinant;recombinant; tags: N-terminal His;none; copies: 1;2; label: 5'-32P on 3L-98 (strand 2); fork 1:2 1:3; ssDNA lagging arm (strand 2).
A further data set has as its target PriA Asp438Ala (Escherichia coli, UniProt P17888 1-732, D438A). The settings on record: protein: recombinant; tags: N-terminal His; label: 5'-32P on 3L-98 (strand 2); fork 1:2 1:3; ssDNA lagging arm (strand 2).
In the next data set the target is PriA Thr482Ala (Escherichia coli, UniProt P17888 1-732, T482A). Conditions: protein: recombinant; tags: N-terminal His; label: 5'-32P on 3L-98 (strand 2); fork 1:2 1:3; ssDNA lagging arm (strand 2).
For the next data set, the target named is PriA CRR triple variant (Escherichia coli, UniProt P17888 1-732, D438A;T482A;H483A). The settings on record: protein: recombinant; tags: N-terminal His; label: 5'-32P on 3L-98 (strand 2); fork 1:2 1:3; ssDNA lagging arm (strand 2).
In another data set the target is PriA His483Ala (Escherichia coli, UniProt P17888 1-732, H483A). The settings on record: protein: recombinant; tags: N-terminal His; label: 5'-32P on 3L-98 (strand 2); fork 1:2 1:3; ssDNA lagging arm (strand 2).
The target of data set [1] is PriA;PriB N-term Arg44Ala LD (Escherichia coli;Escherichia coli, UniProt P17888;P07013 1-732;1-104+1-104, |R44A;internal_change). The settings on record: protein: recombinant;recombinant; tags: N-terminal His;; copies: 1;1; label: 5'-32P on 3L-98 (strand 2); fork 1:2 1:3; ssDNA lagging arm (strand 2).
The target of data set [2] is PriA;PriB C-term Arg44Ala LD (Escherichia coli;Escherichia coli, UniProt P17888;P07013 1-732;1-104+1-104, |R44A;internal_change). Conditions: protein: recombinant;recombinant; tags: N-terminal His;; copies: 1;1; label: 5'-32P on 3L-98 (strand 2); fork 1:2 1:3; ssDNA lagging arm (strand 2).

Among the data in publication PMC10175261 are binding result and binding signal values, retold here.

B1: Fork 1 (structured_DNA)
DNA 1: GCAAGCCTTCTACAGGTCGACCGTCCATGGCGACTCGAGACCGCAATACGGATAAGGGCTGAGCACGCCGACGAACATTCACCACGCCAGACCACGTA
DNA 2: GACTATCTACGTCCGAGGCTCGCGCCGCAGACTCATTTAGCCCTTATCCGTATTGCGGTCTCGAGTCGCCATGGACGGTCGACCTGTAGAAGGCTTGC
DNA 3: TACGTGGTCTGGCGTGGTGAATGTTCGTCGGCGTGCTC
As for B1, the binding result (with PriA;PriB; in data set [1]; in data set [2]) was “binds” each time. Further, the binding signal in the data set with PriA Asp438Ala came out at 95 ± 1.9 % fork shifted; in the data set with PriA Thr482Ala, 91.3 ± 6.5 % fork shifted; in the data set with PriA CRR triple variant it was 95.8 ± 3.1 % fork shifted; with PriA His483Ala, 92.2 ± 3.7 % fork shifted.
